Measured values from IntAct's records for PubMed 21245319.

B1: Histone-lysine N-methyltransferase SETD7 (Homo sapiens), Q8WTS6 (parent)
chain: MDSDDEMVEEAVEGHLDDDGLPHGFCTVTYSSTDRFEGNFVHGEKNGRGKFFFFDGSTLEGYYVDDALQGQGVYTYEDGGVLQGTYVDGELNGPAQEYDTDGRLIFKGQYKDNIRHGVCWIYYPDGGSLVGEVNEDGEMTGEKIAYVYPDERTALYGKFIDGEMIEGKLATLMSTEEGRPHFELMPGNSVYHFDKSTSSCISTNALLPDPYESERVYVAESLISSAGEGLFSKVAVGPNTVMSFYNGVRITHQEVDSRDWALNGNTLSLDEETVIDVPEPYNHVSKYCASLGHKANHSFTPNCIYDMFVHPRFGPIKCIRTLRAVEADEELTVAYGYDHSPPGKSGPEAPEWYQVELKAFQATQQK

Variants of: B1
Conditions: with sir1_human SIRT1, Q96EB6
sir1_human SIRT1, Q96EB6, sequence (Q96EB6 whole entry): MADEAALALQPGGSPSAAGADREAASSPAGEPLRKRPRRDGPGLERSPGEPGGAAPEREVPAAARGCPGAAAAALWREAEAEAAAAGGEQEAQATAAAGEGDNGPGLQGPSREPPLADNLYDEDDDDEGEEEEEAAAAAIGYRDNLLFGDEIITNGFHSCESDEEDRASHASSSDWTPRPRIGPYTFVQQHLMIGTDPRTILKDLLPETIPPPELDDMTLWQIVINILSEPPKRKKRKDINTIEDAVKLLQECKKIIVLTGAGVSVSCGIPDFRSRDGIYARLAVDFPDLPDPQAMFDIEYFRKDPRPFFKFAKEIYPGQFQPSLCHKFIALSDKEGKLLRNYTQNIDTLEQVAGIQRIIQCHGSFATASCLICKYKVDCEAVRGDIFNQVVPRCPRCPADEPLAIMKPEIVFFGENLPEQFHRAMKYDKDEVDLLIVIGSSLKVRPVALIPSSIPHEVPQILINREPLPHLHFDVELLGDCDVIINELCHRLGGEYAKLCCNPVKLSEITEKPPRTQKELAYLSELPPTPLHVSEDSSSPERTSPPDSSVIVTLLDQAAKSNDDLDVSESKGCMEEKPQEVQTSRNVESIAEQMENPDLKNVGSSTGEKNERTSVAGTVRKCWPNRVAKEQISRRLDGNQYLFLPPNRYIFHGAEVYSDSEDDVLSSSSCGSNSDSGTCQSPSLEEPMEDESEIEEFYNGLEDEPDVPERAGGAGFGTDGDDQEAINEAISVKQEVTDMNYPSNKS

effect of a mutation on the interaction | Variant
decreasing interaction strength | MDSDDEMVEEAVEGHLDDDGLPHGFCTVTYSSTDRFEGNFVHGEKNGRGKFFFFDGSTLEGYYVDDALQGQGVYTYEDGGVLQGTYVDGELNGPAQEYDTDGRLIFKGQYKDNIRHGVCWIYYPDGGSLVGEVNEDGEMTGEKIAYVYPDERTALYGKFIDGEMIEGKLATLMSTEEGRPHFELMPGNSVYHFDKSTSSCISTNALLPDPYESERVYVAESLISSAGEGLFSKVAVGPNTVMSFYNGVRITHQEVDSRDWALNGNTLSLDEETVIDVPEPYNHVSKYCASLGHKANASFTPNCIYDMFVHPRFGPIKCIRTLRAVEADEELTVAYGYDHSPPGKSGPEAPEWYQVELKAFQATQQK [H297A]
